# Source: FireProtDB (doi:10.1073/pnas.84.13.4441)
# B1: Tryptophan synthase alpha chain wild type, P0A877 (protein)
# chain: MERYESLFAQLKERKEGAFVPFVTLGDPGIEQSLKIIDTLIEAGADALELGIPFSDPLADGPTIQNATLRAFAAGVTPAQCFEMLALIRQKHPTIPIGLLMYANLVFNKGIDEFYAQCEKVGVDSVLVADVPVEESAPFRQAALRHNVAPIFICPPNADDDLLRQIASYGRGYTYLLSRAGVTGAENRAALPLNHLVAKLKEYNAAPPLQGFGISAPDQVKAAIDAGAAGAISGSAIVKIIEQHINEPEKMLAALKVFVQPMKAATRS
# Conditions: Escherichia coli (strain K12), 25 °C, GdnHCl, CD, Potassium phosphate 20 mM, reversible: yes, whole UniProt chain shown
protein,measurement,setting,value
B1,unfolding free energy,pH 7,18.2 kcal/mol
same,unfolding free energy,pH 9,18 kcal/mol
